# From patent publication US20060263802A1 (CRUCELL HOLLAND B V, published 2006)
# Tests used:
# Assay in all cases: PEPSCAN ELISA, looped 15-mer, 10 ug/ml
# [1] = molecular target: looped peptide … (rabies virus strain ERA)
# [2] = molecular target: looped peptide … (rabies virus strain ERA); remark: listed apart in the source
# [3] = molecular target: looped peptide … (rabies virus strain ERA); remark: listed apart in the source
# [4] = molecular target: looped peptide … (rabies virus strain ERA); remark: listed apart in the source
# [5] = molecular target: looped peptide … (rabies virus strain ERA); remark: listed apart in the source
# [6] = molecular target: looped peptide … (rabies virus strain ERA); remark: listed apart in the source
# [7] = molecular target: looped peptide … (rabies virus strain ERA); remark: listed apart in the source
# [8] = molecular target: looped peptide … (rabies virus strain ERA); remark: listed apart in the source
# [9] = molecular target: looped peptide … (rabies virus strain ERA); remark: listed apart in the source
# [10] = molecular target: looped peptide … (rabies virus strain ERA); remark: listed apart in the source
# [11] = molecular target: looped peptide … (rabies virus strain ERA); remark: listed apart in the source
# [12] = molecular target: looped peptide … (rabies virus strain ERA); remark: listed apart in the source
# [13] = molecular target: looped peptide … (rabies virus strain ERA); remark: listed apart in the source
# [14] = molecular target: looped peptide … (rabies virus strain ERA); remark: listed apart in the source
# [15] = molecular target: looped peptide … (rabies virus strain ERA); remark: listed apart in the source
# [16] = molecular target: looped peptide … (rabies virus strain ERA); remark: listed apart in the source
# [17] = molecular target: looped peptide … (rabies virus strain ERA); remark: listed apart in the source
# [18] = molecular target: looped peptide … (rabies virus strain ERA); remark: listed apart in the source
# [19] = molecular target: looped peptide … (rabies virus strain ERA); remark: listed apart in the source
# [20] = molecular target: looped peptide … (rabies virus strain ERA); remark: listed apart in the source
# [21] = molecular target: looped peptide … (rabies virus strain ERA); remark: listed apart in the source
# [22] = molecular target: looped peptide … (rabies virus strain ERA); remark: listed apart in the source
# [23] = molecular target: looped peptide … (rabies virus strain ERA); remark: listed apart in the source
# [24] = molecular target: looped peptide … (rabies virus strain ERA); remark: listed apart in the source
# [25] = molecular target: looped peptide … (rabies virus strain ERA); remark: listed apart in the source
# [26] = molecular target: looped peptide … (rabies virus strain ERA); remark: listed apart in the source
# [27] = molecular target: looped peptide … (rabies virus strain ERA); remark: listed apart in the source
# [28] = molecular target: looped peptide … (rabies virus strain ERA); remark: listed apart in the source
# [29] = molecular target: looped peptide … (rabies virus strain ERA); remark: listed apart in the source
# [30] = molecular target: looped peptide … (rabies virus strain ERA); remark: listed apart in the source
# [31] = molecular target: looped peptide … (rabies virus strain ERA); remark: listed apart in the source
# [32] = molecular target: looped peptide … (rabies virus strain ERA); remark: listed apart in the source
# [33] = molecular target: looped peptide … (rabies virus strain ERA); remark: listed apart in the source
# [34] = molecular target: looped peptide … (rabies virus strain ERA); remark: listed apart in the source
# [35] = molecular target: looped peptide … (rabies virus strain ERA); remark: listed apart in the source
# [36] = molecular target: looped peptide … (rabies virus strain ERA); remark: listed apart in the source
# [37] = molecular target: looped peptide … (rabies virus strain ERA); remark: listed apart in the source
# [38] = molecular target: looped peptide … (rabies virus strain ERA); remark: listed apart in the source
# [39] = molecular target: looped peptide … (rabies virus strain ERA); remark: listed apart in the source
# [40] = molecular target: looped peptide … (rabies virus strain ERA); remark: listed apart in the source
# [41] = molecular target: looped peptide … (rabies virus strain ERA); remark: listed apart in the source
# [42] = molecular target: looped peptide … (rabies virus strain ERA); remark: listed apart in the source
# [43] = molecular target: looped peptide … (rabies virus strain ERA); remark: listed apart in the source
# [44] = molecular target: looped peptide … (rabies virus strain ERA); remark: listed apart in the source
# [45] = molecular target: looped peptide … (rabies virus strain ERA); remark: listed apart in the source
# [46] = molecular target: looped peptide … (rabies virus strain ERA); remark: listed apart in the source
# [47] = molecular target: looped peptide … (rabies virus strain ERA); remark: listed apart in the source
# [48] = molecular target: looped peptide … (rabies virus strain ERA); remark: listed apart in the source
# [49] = molecular target: looped peptide … (rabies virus strain ERA); remark: listed apart in the source
# [50] = molecular target: looped peptide … (rabies virus strain ERA); remark: listed apart in the source
# [51] = molecular target: looped peptide … (rabies virus strain ERA); remark: listed apart in the source
# [52] = molecular target: looped peptide … (rabies virus strain ERA); remark: listed apart in the source
# [53] = molecular target: looped peptide … (rabies virus strain ERA); remark: listed apart in the source
# [54] = molecular target: looped peptide … (rabies virus strain ERA); remark: listed apart in the source
# [55] = molecular target: looped peptide … (rabies virus strain ERA); remark: listed apart in the source
# [56] = molecular target: looped peptide … (rabies virus strain ERA); remark: listed apart in the source
# [57] = molecular target: looped peptide … (rabies virus strain ERA); remark: listed apart in the source
# [58] = molecular target: looped peptide … (rabies virus strain ERA); remark: listed apart in the source
# [59] = molecular target: looped peptide … (rabies virus strain ERA); remark: listed apart in the source
# [60] = molecular target: looped peptide … (rabies virus strain ERA); remark: listed apart in the source
# [61] = molecular target: looped peptide … (rabies virus strain ERA); remark: listed apart in the source
# [62] = molecular target: looped peptide … (rabies virus strain ERA); remark: listed apart in the source
# [63] = molecular target: looped peptide … (rabies virus strain ERA); remark: listed apart in the source
# [64] = molecular target: looped peptide … (rabies virus strain ERA); remark: listed apart in the source
# [65] = molecular target: looped peptide … (rabies virus strain ERA); remark: listed apart in the source
# [66] = molecular target: looped peptide … (rabies virus strain ERA); remark: listed apart in the source
# [67] = molecular target: looped peptide … (rabies virus strain ERA); remark: listed apart in the source
# [68] = molecular target: looped peptide … (rabies virus strain ERA); remark: listed apart in the source
binder,measurement,setting,value
"human monoclonal antibody CRJB (antibody, V domains shown) VH: QITLKETGPTLVKPTQTLTLTCTFSGFSLSTSGVGVGWIRQPPGKALEWVTLIYWDDDKRYSPSLENRVTIRKDTSKNQVALTMTNMDPLDTGTYYCAHRQHISSFPWFDSWGQGTLVTVSS VL: SYVLTQPPSVSVAPGKTARINCGGNNIEYRSVHWYQQKSGQAPVAVIYDNSDRPSGIPERFSGSKSGNTATLTISRVEAGDEADYYCQVWDISSDVVFGGGTKLTVLG",OD value,[1],96
same,OD value,[2],66
same,OD value,[3],82
same,OD value,[4],87
same,OD value,[5],98
same,OD value,[6],88
same,OD value,[7],101
same,OD value,[8],89
same,OD value,[9],104
same,OD value,[10],105
same,OD value,[11],78
same,OD value,[12],89
same,OD value,[13],73
same,OD value,[14],79
same,OD value,[15],90
same,OD value,[16],82
same,OD value,[17],75
same,OD value,[18],82
same,OD value,[19],104
same,OD value,[20],60
same,OD value,[21],86
same,OD value,[22],68
same,OD value,[23],89
same,OD value,[24],71
same,OD value,[25],85
same,OD value,[26],90
same,OD value,[27],94
same,OD value,[28],77
same,OD value,[29],72
same,OD value,[30],71
same,OD value,[31],78
same,OD value,[32],78
same,OD value,[33],79
same,OD value,[34],75
same,OD value,[35],76
same,OD value,[36],86
same,OD value,[37],79
same,OD value,[38],80
same,OD value,[39],123
same,OD value,[40],72
same,OD value,[41],96
same,OD value,[42],97
same,OD value,[43],79
same,OD value,[44],82
same,OD value,[45],74
same,OD value,[46],97
same,OD value,[47],48
same,OD value,[48],104
same,OD value,[49],91
same,OD value,[50],83
same,OD value,[51],106
same,OD value,[52],108
same,OD value,[53],99
same,OD value,[54],72
same,OD value,[55],89
same,OD value,[56],76
same,OD value,[57],82
same,OD value,[58],57
same,OD value,[59],58
same,OD value,[60],85
same,OD value,[61],89
same,OD value,[62],34
same,OD value,[63],66
same,OD value,[64],58
same,OD value,[65],33
same,OD value,[66],62
same,OD value,[67],57
same,OD value,[68],93
